According to patent US20260217863A1, “ANTIBODY OR PEPTIDE BINDING SPECIFICALLY TO RNASE A, IMMUNOASSAY DEVICE AND METHOD FOR DETECTING RNASE A, AND METHOD FOR COLLECTING RNASE A” (UIF (University Industry Foundation), Yonsei University, priority 2022, published 2026):
Residue numbers refer to the chain shown, from its start. Values belong to the binder of their own block, whether it stands above or below them.

Assays:
[1] = molecular target: Ribonuclease A (Type II-A) from bovine pancreas (bovine) (UniProt P61823); assay: flow cytometry (FL1-H) of E. coli displaying the Fv variant, incubated with fluorescence-labeled RNase-A
[2] = molecular target: Ribonuclease A (Type II-A) from bovine pancreas (bovine) (UniProt P61823); assay: flow cytometry, E. coli surface-displayed Fv, titration of fluorescently labeled RNase A, fit with an adsorption model

Ribonuclease A (Type II-A) from bovine pancreas (bovine), sequence (P61823 27-150): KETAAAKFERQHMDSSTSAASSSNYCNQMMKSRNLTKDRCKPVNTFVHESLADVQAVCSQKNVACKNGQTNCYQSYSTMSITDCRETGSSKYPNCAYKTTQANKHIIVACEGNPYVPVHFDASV

- fluorescence intensity, at 3.125 µM fluorescence-labeled RNase-A [1]: 31.5 a.u.
- fluorescence intensity, at 6.25 µM fluorescence-labeled RNase-A [1]: 44.7 a.u.
- fluorescence intensity, at 12.5 µM fluorescence-labeled RNase-A [1]: 72.3 a.u.
- fluorescence intensity, at 25 µM fluorescence-labeled RNase-A [1]: 108 a.u.
- fluorescence intensity, at 50 µM fluorescence-labeled RNase-A [1]: 167 a.u.
- fluorescence intensity, at 100 µM fluorescence-labeled RNase-A [1]: 196 a.u.
- Kd [2]: 23.8 µM
B1: Fv variant clone 5, surface-expressed on the outer membrane of E. coli (protein, part only; not given: AIDA-1 display anchor and linker, not shown: another chain or arm of the molecule; large carriers; small tags and cut ends)
VH: EVQLVESAAEVRRPGASVKITCKASGYSFSTYGIQWMRQAPGQRPEWLGWIHAGTGGTKYSRKFQGRITITRDTSANTVYLDLNSLTSEDTAVYYCARCGPDSDVMTDFWGQGTTVTVSS

- fluorescence intensity, at 3.125 µM fluorescence-labeled RNase-A [1]: 15.5 a.u.
- fluorescence intensity, at 6.25 µM fluorescence-labeled RNase-A [1]: 19.9 a.u.
- fluorescence intensity, at 12.5 µM fluorescence-labeled RNase-A [1]: 23.3 a.u.
- fluorescence intensity, at 25 µM fluorescence-labeled RNase-A [1]: 31.8 a.u.
- fluorescence intensity, at 50 µM fluorescence-labeled RNase-A [1]: 37.8 a.u.
- fluorescence intensity, at 100 µM fluorescence-labeled RNase-A [1]: 51.9 a.u.
- Kd [2]: 28.7 µM
B2: Fv variant clone 39, surface-expressed on the outer membrane of E. coli (protein, part only; not given: AIDA-1 display anchor and linker, not shown: another chain or arm of the molecule; large carriers; small tags and cut ends)
VH: B1 VH with C99D, P101T, D102A, S103K, D104K, V105S, M106R, T107K, F109D

- fluorescence intensity, at 3.125 µM fluorescence-labeled RNase-A [1]: 14 a.u.
- fluorescence intensity, at 6.25 µM fluorescence-labeled RNase-A [1]: 17.2 a.u.
- fluorescence intensity, at 12.5 µM fluorescence-labeled RNase-A [1]: 23.8 a.u.
- fluorescence intensity, at 25 µM fluorescence-labeled RNase-A [1]: 37.5 a.u.
- fluorescence intensity, at 50 µM fluorescence-labeled RNase-A [1]: 47.9 a.u.
- fluorescence intensity, at 100 µM fluorescence-labeled RNase-A [1]: 69.7 a.u.
- Kd [2]: 29.4 µM
B3: Fv variant clone 23, surface-expressed on the outer membrane of E. coli (protein, part only; not given: AIDA-1 display anchor and linker, not shown: another chain or arm of the molecule; large carriers; small tags and cut ends)
VH: B1 VH with C99Y, D102V, S103G, D104R, M106K, T107R, F109D
